From the supplement of paper PMC9170038

Test system: MS2 coat protein
Experiment: apparent KD of MS2 coat protein; designed switch direction (-1 OFF switch, 1 ON switch): 1; higher = weaker reporter binding
In short: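 SNAP-549-labelled MS2 coat protein was titrated, doubling from 0.7 or 1.5 nM to 3 µM, over designed RNA switches transcribed on Illumina chips by stalled E. coli RNA polymerase. Runs were done without input, with 200 uM small-molecule ligand, or with an oligonucleotide input. Apparent KD is the per-design median over clusters of curve-fitted normalised fluorescence.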

[1] = input ligand: microRNA oligo, concentration not stated
[2] = Eterna round: R95, input ligand: FMN 200 uM
[3] = Eterna round: R95, input ligand: microRNA oligo, concentration not stated
[4] = Eterna round: R95, input ligand: none

Sequence | apparent KD of MS2 coat protein (input ligand: FMN 200 uM) | apparent KD of MS2 coat protein [1] | apparent KD of MS2 coat protein (input ligand: none) | apparent KD of MS2 coat protein [2] | apparent KD of MS2 coat protein [3] | apparent KD of MS2 coat protein [4]
CUUUCUCUUGCAGGAUAUCCUAGUCUUCGGUUAGGAGAAGGGCAAGGAAAUUUGCUAAGCAAGUCUGUAACAGAGAUCCUCCUC [pwkr ssNG1 F9.1] (Eterna round: R96, puzzle: Same State NG 1) | 30.8 nM | 313 nM | 37.9 nM |  |  | 
UUGAUUAACGUAGGAUAUCGACCUACAUGAGGAUCACCCAUGUCUUUGAAUAGAUUUUUUUGUUACGAGAAGGACGUUAUGUAU [JR_SSNG2_Sub066] (Eterna round: R96, puzzle: Same State NG 2) | 40.7 nM | 49.6 nM | 89.4 nM |  |  | 
ACAUGAGAUGGAGGAUAUGUUGUACCUACAUGUGACAUGAGGAUCACCCAUGUGGUAAGUAUGAUACAGAAGGCCAAGAUAUGU [Equivalance 59 - Jieux - Same State NG 2] (Eterna round: R96, puzzle: Same State NG 2) | 16.5 nM | 15.8 nM | 27.2 nM |  |  | 
GUUAAACAUGAGGAUCACCCAUGUCAAUGUAGUCGAGGAUAUGGGCAGCUAUGAGGCGUACUAGAAGGCGAAGAGU [Mat - Same State 1 - Mod of JL - D12] (Eterna round: R96, puzzle: Same State 1) |  | 224 nM |  |  |  | 
AUAAUAAUAAGUGAGGAUAUGUUGAUAAAGACAUGAGGAUCACCCAUGUGAAAUAAAAUAAUAAUACAGAAGGCACAAUAAUAAA [JMF's solution 2] (puzzle: Same State 2) |  |  |  | 25.6 nM | 38.7 nM | 27.9 nM
UGACACACGGCAGGAUAUCGAUUCCAAAGGAAUCGAGAAGGGCCUCAUGUCGUGGAAACGUGACAUGAGGAUCACCCAUGUUGC [Omei SS(NG)1 Cv15] (Eterna round: R96, puzzle: Same State NG 1) | 222 nM | 15.8 nM | 96 nM |  |  | 
AAAGGACAUGAGGAUCACCCAUGUAGAAAAUACACAGGAUAUCGUCAUAUCGAAAUAUAAUGAGAAGGGUGCAAAA [Zaanininra] (puzzle: Same State 1) |  |  |  | 73.5 nM | 179 nM | 256 nM
AAACGGCCGAACGGAGGGCCACAUGAGGAUCACCCAUGUACAUAGGAUAUCACACCAACGAGGCGUGAGAAGGGUGAUUAAAAC [Teisedbe] (Eterna round: R96, puzzle: Same State NG 3) | 176 nM | 52.1 nM | 1110 nM |  |  | 
GGAGCCGGCACUGAGGAUAUUCAUAUUAAAACAUGAGGAUCACCCAUGUGGGCCAGAAGGCCUUGGGAGAAGGCAGGUCGACUCG [Diqureveri - 3] (puzzle: Same State 2) |  |  |  | 18.5 nM | 145 nM | 243 nM
AGAUCAUGACGAGGAUAUGGUACAUGAGGAUCACCCAUGUAUGUACCACGACGGAAACGUCGAAUCCAGAAGGCGUCGUGAUCA [Mat - Same State NG 2 - JL mod - D23] (Eterna round: R96, puzzle: Same State NG 2) | 47.5 nM | 100 nM | 127 nM |  |  | 
UUACUCAUGUAAGGAUAUGCAGCCGAAACGGCUGCAGAAGGUACUAUAAUACAUGAGGAUCACCCAUGUCAAAAUAAUUAAAAC [Mat - Same State NG 1 - JL mod - D72] (Eterna round: R96, puzzle: Same State NG 1) | 34.8 nM | 26 nM | 26.9 nM |  |  | 
AGUCCAGCCUGAGCUGGACAAAAGCAUGUACAUGAGGAUCACCCAUGUCAUGUAUAAGCUUUUUGCUCGUUUUAAUA [Zipper 49 - 16] (puzzle: Sensor for hsa-mir-208a) |  |  |  | 19.9 nM | 10.7 nM | 19 nM
UUAAGCCACGGGCAGGAUAUGUAUUAAAGUACAUGAGGAUCACCCAUGUGCAGGUGUAACACCUGACAGAAGGGCCAAUCGCGGC [Soondi - 3] (puzzle: Same State 2) |  |  |  | 16 nM | 68 nM | 72.7 nM
GGAGCCGGCACUGAGGAUAUUCAUAUUUAAACAUGAGGAUCACCCAUGUAGGCCAGAAGGCCUUGGGAGAAGGCAGGUCGGCUCG [salish99_ss2_r3_076] (puzzle: Same State 2) |  |  |  | 26 nM | 216 nM | 493 nM
GGUGCAAUAAACGCCUACAUGAGGAUCACCCAUGUAUGUAGGCAGGAUAUCGUUUGCAAAGCAAACGAGAAGGGCUGUAGUACC [Mat - Same State NG 3 - JL Mod - D41] (Eterna round: R96, puzzle: Same State NG 3) | 51.5 nM | 82.3 nM | 142 nM |  |  | 
GUAAAACAUGAGGAUCACCCAUGUCAAUGUAGUCGAGGAUAUGGGUAGCUAUGAGGCGUACUAGAAGGCGAAAAGU [Mat - Same State 1 - Mod of JL - D18] (puzzle: Same State 1) |  |  |  | 91.8 nM | 85.5 nM | 248 nM

Sequence | apparent KD of MS2 coat protein (input ligand: FMN 200 uM) | apparent KD of MS2 coat protein [1] | apparent KD of MS2 coat protein (input ligand: none) | apparent KD of MS2 coat protein [2] | apparent KD of MS2 coat protein [3] | apparent KD of MS2 coat protein [4]
AACAAUCUAUCUGAGGAUAUCAUGUAAUAAACAUGAGGAUCACCCAUGUGCAGGAAAACUGCAUAUGAGAAGGCAGAUAGAUUGA [salish99_ss2_r3_030] (puzzle: Same State 2) |  |  |  | 182 nM | 134 nM | 180 nM
GAGGGACAUGAGGAUCACCCAUGUGGAGGGAGUAAAGGAUAUUAGUGUGGGAAAGUAGGGUAAGAAGGUUGAUUGG [JR_SS1_Sub084] (puzzle: Same State 1) |  |  |  | 103 nM | 74.9 nM | 209 nM
UUGAAGAAUUAAGGAUAUUGAAUACAUAUGUUUAACAUGAGGAUCACCCAUGUGGGUUGCGGUAUCGAGAAGGUAAAUUAAUAG [Mat - Same State NG 2 - JL mod - D9] (Eterna round: R96, puzzle: Same State NG 2) | 142 nM | 98.4 nM | 118 nM |  |  | 
GUGGUCAGACAUGAGGAUCACCCAUGUGGAAUAAAUAAGGACUAGGAUAUGGAAUAUAGGAUAUACCAGAAGGAGUGGUUGGUG (Eterna round: R96, puzzle: Same State NG 3) |  | 36.5 nM |  |  |  | 
UCUUGGUUUUUGCUCGUUUUUUGUGUUGAACAUGAGGAUCACCCAUGUAUUGUACAAUCCGAUUUAAUAAUGGUCCG [JMF 50] (puzzle: Sensor for hsa-mir-208a) |  |  |  | 42.5 nM | 48.4 nM | 46.4 nM
UAGGGACAUGAGGAUCACCCAUGUGCCUCAUAUGGAGAAACACAGGAUAUGCUGAGGGAAACAUGGCAGAAGGGUGAAGAGAGG [Default title] (Eterna round: R96, puzzle: Same State NG 3) | 31.9 nM | 27.3 nM | 50.9 nM |  |  | 
AUACAUGAGGAUCACCCAUGUAAUUAAUUAAUUAAUAAGAUCUAGGAUAUCAGCUCGUUUAGAGCUGAGAAGGAGAUCACAUGU [SSNG3/21-B3] (Eterna round: R96, puzzle: Same State NG 3) |  | 19.8 nM |  |  |  | 
UUUAUAGGCGCAGGAUAUGGUGAGGAUCACCCACUAGAAGGGUGCACAUGAGAAUCGGACAUGAGGAUCACCCAUGUCCGGCGC (Eterna round: R96, puzzle: Same State NG 1) | 915 nM | 201 nM | 526 nM |  |  | 
ACCCAAAGUAUAUGGGAACAAGCUUUUUAACAUGAGGAUCACCCAUGUACUCGUCUUGUAAGCAGUCGAAAGACUGC [Sensor 100 - 1] (puzzle: Sensor for hsa-mir-208a) |  |  |  | 312 nM | 17.4 nM | 368 nM
CUGUCUACAGGUGUCUUUGCUCGUUUUAUACAUGAGGAUCACCCAUGUUAUAGCCCGGUGCUUGCGCUGGGCUGAUU [JL ViennaUCT Tearor mod 8] (puzzle: Sensor for hsa-mir-208a) |  |  |  | 66.8 nM | 14.1 nM | 63 nM
GAGUGGCAGUUAGGAUAUACAGUGAUAAUGAUAGUAGAAGGAACAGACAUGAGGAUCACCCAUGUAGGACUAAUCCAGAGAGAG [Parity 33 - Jieux - Same State NG 1] (Eterna round: R96, puzzle: Same State NG 1) | 30.8 nM | 29.8 nM | 34.9 nM |  |  | 
AGGCUCAGCAUGCAGGAUAUAGUCGCUGCGACAUGAGGAUCACCCAUGUGGUGUGAAAGAAAGCGCUAGAAGGGUAAAGUGAGUG [Beeran] (puzzle: Same State 2) |  |  |  | 244 nM | 467 nM | 750 nM
GAGUGGUGGAGAGGAUAUACAUUGAUAUUCACUGUAGAAGGUUCUAACAUGAGGAUCACCCAUGUAGGACUAUUCCUGAGAGUU [Parity 54 - Jieux - Same State NG 1] (Eterna round: R96, puzzle: Same State NG 1) | 11 nM | 8.99 nM | 14.7 nM |  |  | 
AGCUAUUAAUCAGGAUAUGGUGACAUGAGGAUCACCCAUGUAUUGAUGAUUAAAUGUGGUCAAUACCAGAAGGGAUUACUAACA [SameState NG2 #51] (Eterna round: R96, puzzle: Same State NG 2) | 44.6 nM | 401 nM | 537 nM |  |  | 
GGUCCAGCCUGAGCUGGACAAAAGCAUGUACAUGAGGAUCACCCAUGUUCAUGUACAAGCUUUUUGCUCGUCUUAAC [salish99_208a_r3_038] (puzzle: Sensor for hsa-mir-208a) |  |  |  | 530 nM | 16.9 nM | 648 nM
